Experimental data from patent US20140271607A1.
Each block holds one molecule with its values, some of them ahead of it.

Experiments:
[1] = target: FX (blood coagulation factor X); test: cell-based or functional assay
[2] = target: rsTF (recombinant soluble tissue factor) (UniProt P13726); test: cell-based or functional assay
[3] = target: FX (blood coagulation factor X)
[4] = target: T1, rsTF (recombinant soluble tissue factor), P13726
T1 chain: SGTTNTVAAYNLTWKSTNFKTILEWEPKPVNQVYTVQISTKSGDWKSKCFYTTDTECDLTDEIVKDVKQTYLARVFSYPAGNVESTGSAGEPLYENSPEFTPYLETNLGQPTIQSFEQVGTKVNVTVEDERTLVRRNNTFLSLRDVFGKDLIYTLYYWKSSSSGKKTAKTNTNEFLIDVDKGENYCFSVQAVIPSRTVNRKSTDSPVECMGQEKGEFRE

EC50 (ng/mL), chromogenic assay (COASET) [1]: 1.75 ng/mL
EC50 (ng/mL), chromogenic assay (COASET), Run 1 [1]: 1.36 ng/mL
EC50 (ng/mL), chromogenic assay (COASET), Run 2 [1]: 1.16 ng/mL
Molecule: FacVII-ATKAVC (FacVII derivative with SOD1 residues 1-6, ATKAVC, at the C-terminus) (from UniProt P08709 1-466) (enzyme)

EC50 (ng/mL), chromogenic assay (COASET) [1]: 6.06 ng/mL
Molecule: FacVII-ATKAVC-40 kDa PEG conjugate (C-terminal PEGylated) (from UniProt P08709 1-466) (enzyme)

Potency (IU/mL), clotting assay (StaclotVIIa-rTF) [2]: 1990 IU/mL
Residual activity, % (compared to FacVIIa-ATKAVC), clotting assay (StaclotVIIa-rTF) [2]: 44.7%
Specific activity (IU/mg as FacVIIa), clotting assay (StaclotVIIa-rTF) [2]: 20600 IU/mg
B1: FacVIIa-ATKAVC-PEG-Fc complex (protein, part only; not given: Fc region and PEG linker, not shown: a dimerising Fc or GST)
chain: MVSQALRLLCLLLGLQGCLAAVFVTQEEAHGVLHRRRRANAFLEELRPGSLERECKEEQCSFEEAREIFKDAERTKLFWISYSDGDQCASSPCQNGGSCKDQLQSYICFCLPAFEGRNCETHKDDQLICVNENGGCEQYCSDHTGTKRSCRCHEGYSLLADGVSCTPTVEYPCGKIPILEKRNASKPQGRIVGGKVCPKGECPWQVLLLVNGAQLCGGTLINTIWVVSAAHCFDKIKNWRNLIAVLGEHDLSEHDGDEQSRRVAQVIIPSTYVPGTTNHDIALLRLHQPVVLTDHVVPLCLPERTFSERTLAFVRFSLVSGWGQLLDRGATALELMVLNVPRLMTQDCLQQSRKVGDSPNITEYMFCAGYSDGSKDSCKGDSGGPHATHYRGTWYLTGIVSWGQGCATVGHFGVYTRVSQYIEWLQKLMRSEPRPGVLLRAPFPATKAVC
modifications: C-terminal cysteine linked to the maleimide end of 10 kDa PEG

EC50 (ng/mL), chromogenic assay (COASET) [1]: 1.38 ng/mL
EC50 (ng/mL), chromogenic assay (COASET), Run 1 [1]: 1.62 ng/mL
EC50 (ng/mL), chromogenic assay (COASET), Run 2 [1]: 1.67 ng/mL
B2: blood coagulation factor VII (Factor VII, FacVII), native (protein)
chain: AVFVTQEEAHGVLHRRRRANAFLEELRPGSLERECKEEQCSFEEAREIFKDAERTKLFWISYSDGDQCASSPCQNGGSCKDQLQSYICFCLPAFEGRNCETHKDDQLICVNENGGCEQYCSDHTGTKRSCRCHEGYSLLADGVSCTPTVEYPCGKIPILEKRNASKPQGRIVGGKVCPKGECPWQVLLLVNGAQLCGGTLINTIWVVSAAHCFDKIKNWRNLIAVLGEHDLSEHDGDEQSRRVAQVIIPSTYVPGTTNHDIALLRLHQPVVLTDHVVPLCLPERTFSERTLAFVRFSLVSGWGQLLDRGATALELMVLNVPRLMTQDCLQQSRKVGDSPNITEYMFCAGYSDGSKDSCKGDSGGPHATHYRGTWYLTGIVSWGQGCATVGHFGVYTRVSQYIEWLQKLMRSEPRPGVLLRAPFP
Relative activity, %, chromogenic assay (COASET) [3]: 100%
Relative activity, %, chromogenic assay (COASET), Run 1 [3]: 100%
Relative activity, %, chromogenic assay (COASET), Run 2 [3]: 100%

EC50 (ng/mL), chromogenic assay (COASET) [1]: 12.2 ng/mL
B3: FacVII-40 kDa PEG (N-terminal PEGylated FacVII) (protein)
chain: B2 chain
Relative activity, % (compared to FacVII), chromogenic assay (COASET) [3]: 11.3%

B4: FacVIIa-ATKAVC (activated FacVII-ATKAVC derivative) (protein)
chain: AVFVTQEEAHGVLHRRRRANAFLEELRPGSLERECKEEQCSFEEAREIFKDAERTKLFWISYSDGDQCASSPCQNGGSCKDQLQSYICFCLPAFEGRNCETHKDDQLICVNENGGCEQYCSDHTGTKRSCRCHEGYSLLADGVSCTPTVEYPCGKIPILEKRNASKPQGRIVGGKVCPKGECPWQVLLLVNGAQLCGGTLINTIWVVSAAHCFDKIKNWRNLIAVLGEHDLSEHDGDEQSRRVAQVIIPSTYVPGTTNHDIALLRLHQPVVLTDHVVPLCLPERTFSERTLAFVRFSLVSGWGQLLDRGATALELMVLNVPRLMTQDCLQQSRKVGDSPNITEYMFCAGYSDGSKDSCKGDSGGPHATHYRGTWYLTGIVSWGQGCATVGHFGVYTRVSQYIEWLQKLMRSEPRPGVLLRAPFPATKAVC
Potency (IU/mL), clotting assay (StaclotVIIa-rTF) [4]: 16700 IU/mL
Specific activity (IU/mg as FacVIIa), clotting assay (StaclotVIIa-rTF) [4]: 46100 IU/mg
